How the values were obtained:
[1] = molecular target: T1, biotinylated prefusion RSV F DS-Cav1, subtype B (Human respiratory syncytial virus B, …, UniProt P13843, stabilised, biotin); experiment: Luminex bead binding assay; settings: both partners purified
T1 construct: also called prefusion RSV F derived from B subtype; source: biotinylated protein coupled to avidin-coated beads; copies: 3 + 3

[2] = molecular target: prefusion-stabilized RSV F ectodomain DS-Cav1 (strain A2), furin-cleaved trimer with foldon, tags removed (respiratory syncytial virus, strain A2 …, UniProt P03420); experiment: cell-based or functional assay
[3] = molecular target: T2, biotinylated AviTagged prefusion RSV F DS-Cav1, subtype A (strain A2) (Human respiratory syncytial virus A, …, stabilised, biotin (by biotin ligase BirA, on the AviTag)); experiment: Luminex bead binding assay; biotinylated RSV F proteins coupled to avidin-coated MagPlex beads (1 μg per 50,000 beads); IgG in 10-fold serial dilutions 1 μM to 0.1 pM; PE-conjugated anti-human IgG Fc; PBS, 0.1% BSA, 0.05% Tween 20; settings: both partners purified
T2 construct: also called Biotinylated DS-Cav1; immobilized prefusion RSV F; source: FreeStyle 293-F, transfected, purified; biotinylated with BirA, Superdex 200; copies: 3 + 3

[4] = molecular target: full-length prefusion F (RSV F residues 1-574 with the DS-Cav1 stabilizing mutations) on the cell surface (Human respiratory syncytial virus A, …, UniProt P03420, stabilised); experiment: flow cytometry on cells; Expi293 cells expressing RSV F 1-574 DS-Cav1 or its N426D variant; antibodies 1 μg/ml, 1 hour at 4°C; Alexa488 anti-human secondary; normalized to motavizumab binding; settings: one partner purified
[5] = molecular target: T2, biotinylated AviTagged prefusion RSV F …; experiment: SPR; biotinylated DS-Cav1 immobilised on an SA chip (292 RU), Biacore X100; AM14 Fab 5 nM to 19.5 pM in HBS-EP+; 1:1 binding model; settings: both partners purified

B1: motavizumab IgG (antibody, V domains shown)
VH: QVTLRESGPALVKPTQTLTLTCTFSGFSLSTAGMSVGWIRQPPGKALEWLADIWWDDKKHYNPSLKDRLTISKDTSKNQVVLKVTNMDPADTATYYCARDMIFNFYFDVWGQGTTVTVSS
VL: DIQMTQSPSTLSASVGDRVTITCSASSRVGYMHWYQQKPGKAPKLLIYDTSKLASGVPSRFSGSGSGTEFTLTISSLQPDDFATYYCFQGSGYPFTFGGGTKVEIK
B1: binds [1].

B2: AM14 IgG (antibody, V domains shown)
VH: EVQLVESGGGVVQPGRSLRLSCAASGFSFSHYAMHWVRQAPGKGLEWVAVISYDGENTYYADSVKGRFSISRDNSKNTVSLQMNSLRPEDTALYYCARDRIVDDYYYYGMDVWGQGATVTVSS
VL: DIQMTQSPSSLSASVGDRVTITCQASQDIKKYLNWYHQKPGKVPELLMHDASNLETGVPSRFSGRGSGTDFTLTISSLQPEDIGTYYCQQYDNLPPLTFGGGTKVEIK
In the case of B2, the “IC50 of neutralisation of RSV strain A2 (F of the virus), microneutralization on HEp-2 cells” value [2] is reported as 0.0124 µg/mL, the “IC50 of neutralisation of RSV strain A Long (F of the virus), microneutralization on HEp-2 cells” value [2] is reported as 0.0136 µg/mL and the EC50 [3] is reported as 0.63 nM. B2: binds [4].

B3: AM14 Fab (Fab, V domains shown)
VH: B2 VH
VL: B2 VL
In the case of B3, the Kd [5] is reported as 0.18 nM, the koff [5] is reported as 0.0034 s⁻¹ and the kon [5] is reported as 1.87e+07 M⁻¹ s⁻¹.
